Results reported in patent US20190099499A1 (Pfizer, published 2019).

Columns and labels:
[1] = molecular target: T1, human Fc-gamma receptor I (CD64) (human, UniProt P12314 16-288, limits assumed); assay: SPR (BIAcore), antibody captured on immobilized CD33 ECD, receptor injected; kinetic fit
T1 construct: Soluble receptor injected over captured antibody; also called FcγRI (CD64)
Method: (§1) Various concentrations of the Fcγ receptors FcγIIa (CD32a), FcγIIb(CD32b), FcγIIIa (CD16a) and FcγRI (CD64) were injected over the surface and binding was determined.

[2] = molecular target: T2, human FcRn, biotinylated through an engineered Avi-tag (human, UniProt P55899 24-297; P61769 21-119); assay: SPR (BIAcore), steady-state, pH 6.0; biotinylated human FcRn on streptavidin chip, antibody injected
T2 construct: not shown: engineered Avi-tag

[3] = molecular target: T3, human Fc-gamma receptor IIa (CD32a) (human, UniProt P12318 34-217); assay: SPR (BIAcore), antibody captured on immobilized CD33 ECD, receptor injected; steady state fit
T3 construct: Soluble receptor injected over captured antibody; also called FcγIIa (CD32a)
T3 sequence (looked up): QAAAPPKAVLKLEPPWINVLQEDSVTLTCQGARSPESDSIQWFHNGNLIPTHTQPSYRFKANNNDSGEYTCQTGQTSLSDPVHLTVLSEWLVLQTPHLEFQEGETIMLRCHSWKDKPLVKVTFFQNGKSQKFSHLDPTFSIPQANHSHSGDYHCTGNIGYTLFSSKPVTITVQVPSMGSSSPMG
Method: as §1

[4] = molecular target: T4, human Fc-gamma receptor IIIa (CD16a) (human, UniProt P08637 17-208); assay: as above
T4 construct: Soluble receptor injected over captured antibody; also called FcγIIIa (CD16); FcγIIIa (CD16a)
Method: as §1

[5] = molecular target: T5, human Fc-gamma receptor IIb (CD32b) (human, UniProt P31994 43-217); assay: as above
T5 construct: Soluble receptor injected over captured antibody; also called FcγIIb(CD32b)
T5 sequence (looked up): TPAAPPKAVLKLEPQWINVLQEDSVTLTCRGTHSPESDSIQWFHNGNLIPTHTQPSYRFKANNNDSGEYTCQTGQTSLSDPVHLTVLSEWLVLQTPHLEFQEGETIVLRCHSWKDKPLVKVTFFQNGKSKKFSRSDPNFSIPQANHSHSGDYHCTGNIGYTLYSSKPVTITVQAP
Method: as §1

[6] = molecular target: T3, human Fc-gamma receptor IIa (CD32a); assay: SPR (BIAcore), ADC captured on immobilized CD33 ECD, receptor injected; steady state fit
Method: as §1

[7] = molecular target: T4, human Fc-gamma receptor IIIa (CD16a); assay: as above
Method: as §1

[8] = molecular target: T5, human Fc-gamma receptor IIb (CD32b); assay: as above
Method: as §1

[9] = molecular target: T2, human FcRn, biotinylated through an …; assay: SPR (BIAcore), steady-state, pH 6.0; biotinylated human FcRn on streptavidin chip, ADC injected
From the text: BIAcore® technology utilizes changes in the refractive index at the surface layer of a sensor upon binding of the anti-CD33 derived monoclonal antibodies or their respective ADCs to human FcRn protein immobilized on the layer. Binding was detected by surface plasmon resonance (SPR) of laser light refracting from the surface. Human FcRn was specifically biotinylated through an engineered Avi-tag using the BirA reagent (Catalog #: BIRA500, Avidity, LLC, Aurora, Colo.) and immobilized onto a streptavidin (SA) sensor chip to enable uniform orientation of the FcRn protein on the sensor.

[10] = molecular target: T1, human Fc-gamma receptor I (CD64); assay: SPR (BIAcore), ADC captured on immobilized CD33 ECD, receptor injected; kinetic fit
Method: as §1

T2 sequence (P55899 24-297 limits assumed, change not shown, chain 1 of 2): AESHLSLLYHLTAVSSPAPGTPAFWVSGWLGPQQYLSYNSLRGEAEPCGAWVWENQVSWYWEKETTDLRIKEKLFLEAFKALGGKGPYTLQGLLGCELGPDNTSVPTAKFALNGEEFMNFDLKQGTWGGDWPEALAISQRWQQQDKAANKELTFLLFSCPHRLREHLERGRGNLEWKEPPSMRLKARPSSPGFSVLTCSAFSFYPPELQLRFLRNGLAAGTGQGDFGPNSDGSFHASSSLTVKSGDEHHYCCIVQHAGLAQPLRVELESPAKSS
T2 sequence (P61769 21-119 limits assumed, change not shown, chain 2 of 2): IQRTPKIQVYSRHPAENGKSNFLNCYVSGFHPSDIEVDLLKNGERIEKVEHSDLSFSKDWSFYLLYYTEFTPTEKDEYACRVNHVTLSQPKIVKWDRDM
T1 sequence (P12314 16-288 limits assumed): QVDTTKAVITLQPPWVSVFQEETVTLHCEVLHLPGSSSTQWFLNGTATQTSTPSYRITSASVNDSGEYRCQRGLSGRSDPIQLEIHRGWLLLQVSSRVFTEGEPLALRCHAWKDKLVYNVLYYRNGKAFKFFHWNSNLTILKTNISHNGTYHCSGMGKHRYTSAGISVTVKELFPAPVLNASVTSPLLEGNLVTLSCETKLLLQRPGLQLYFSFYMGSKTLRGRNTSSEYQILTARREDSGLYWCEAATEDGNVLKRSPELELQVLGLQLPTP
T4 sequence (P08637 17-208 limits assumed): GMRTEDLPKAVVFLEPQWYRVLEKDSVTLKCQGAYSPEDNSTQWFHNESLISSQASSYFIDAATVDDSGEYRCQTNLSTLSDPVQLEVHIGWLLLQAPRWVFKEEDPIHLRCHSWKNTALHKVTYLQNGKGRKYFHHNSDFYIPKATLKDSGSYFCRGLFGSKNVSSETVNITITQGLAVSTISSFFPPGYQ

B1: CD33-(K334C/K392C) antibody (unconjugated) (antibody, human IgG1)
heavy: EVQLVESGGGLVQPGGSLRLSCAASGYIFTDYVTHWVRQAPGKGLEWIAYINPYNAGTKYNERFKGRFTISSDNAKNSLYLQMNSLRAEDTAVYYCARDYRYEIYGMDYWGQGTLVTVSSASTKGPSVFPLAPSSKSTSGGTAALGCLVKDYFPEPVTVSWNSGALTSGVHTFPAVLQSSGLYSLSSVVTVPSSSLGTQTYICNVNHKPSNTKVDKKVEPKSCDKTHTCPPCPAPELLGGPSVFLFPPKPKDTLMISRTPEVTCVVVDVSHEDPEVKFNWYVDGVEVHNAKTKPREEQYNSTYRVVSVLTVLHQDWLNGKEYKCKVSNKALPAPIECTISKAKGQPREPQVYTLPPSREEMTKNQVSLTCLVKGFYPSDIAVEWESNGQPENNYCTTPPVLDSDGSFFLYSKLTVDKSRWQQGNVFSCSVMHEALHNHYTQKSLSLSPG
light: DIQLTQSPSSLSASVGDRVTITCRASSSVGYMHWYQQKPGKAPKLLIYDTSQLASGVPSRFSGSGSGTDFTLTISSLQPEDFATYYCQLWSSNPLTFGGGTKVEIKRTVAAPSVFIFPPSDEQLKSGTASVVCLLNNFYPREAKVQWKVDNALQSGNSQESVTEQDSKDSTYSLSSTLTLSKADYEKHKVYACEVTHQGLSSPVTKSFNRGEC
notes: Human IgG1 with engineered Cys at heavy chain positions 334 and 392 (Eu index of Kabat); also called CD33-(K334C/K392C)-human IgG1 antibody
- Kd [1]: 0.02 nM
- Kd [2]: 964 nM
- Kd [3]: 900 nM
- Kd [4]: 210 nM
- Kd [5]: 3460 nM

B2: CD33-(K334C/K392C)-CPI (CD33-(K334C/K392C)-MalPeg6-vc-PABC-DMAE-CPI ADC) (antibody, human IgG1)
heavy: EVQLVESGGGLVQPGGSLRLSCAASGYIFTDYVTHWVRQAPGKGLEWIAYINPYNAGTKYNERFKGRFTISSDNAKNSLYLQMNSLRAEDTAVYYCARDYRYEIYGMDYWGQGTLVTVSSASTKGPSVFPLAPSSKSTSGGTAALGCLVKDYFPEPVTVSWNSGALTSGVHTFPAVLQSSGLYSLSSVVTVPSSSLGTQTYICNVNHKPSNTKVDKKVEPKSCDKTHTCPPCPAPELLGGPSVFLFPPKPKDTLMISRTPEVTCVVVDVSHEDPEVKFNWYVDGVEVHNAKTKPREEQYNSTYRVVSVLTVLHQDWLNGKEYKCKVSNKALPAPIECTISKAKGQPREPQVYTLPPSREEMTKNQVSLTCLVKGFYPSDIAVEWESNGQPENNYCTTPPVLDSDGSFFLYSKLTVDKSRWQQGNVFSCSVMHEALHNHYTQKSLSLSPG
light: DIQLTQSPSSLSASVGDRVTITCRASSSVGYMHWYQQKPGKAPKLLIYDTSQLASGVPSRFSGSGSGTDFTLTISSLQPEDFATYYCQLWSSNPLTFGGGTKVEIKRTVAAPSVFIFPPSDEQLKSGTASVVCLLNNFYPREAKVQWKVDNALQSGNSQESVTEQDSKDSTYSLSSTLTLSKADYEKHKVYACEVTHQGLSSPVTKSFNRGEC
modifications: linker-payload MalPeg6-vc-PABC-DMAE-CPI (LP7) on engineered Cys 334 and Cys 392 (Eu index of Kabat); DAR 4.0
notes: Antibody drug conjugate, human IgG1
- Kd [6]: 12900 nM
- Kd [7]: 5650 nM
- Kd [8]: 20100 nM
- Kd [9]: 1220 nM
- Kd [10]: 0.17 nM
